B1: Cell division cycle and apoptosis regulator protein 1, residues 625 to 674; numbered along this chain, Q8IX12 (parent)
chain: ISTPTHWSKLDPKTMKVNDLRKELESRALSSKGLKSQLIARLTKQLKVEE

± gives the uncertainty stated by the source.

Abundance fitness data for 52 variants are collected here from the Human Domainome abundance scans (Beltran et al. 2025).

This data set covers variants of B1. Briefly: abundance fitness (aPCA) (normalised: wild type 0, dead -1); higher = more abundant; growth selection in yeast, the domain comes from the species named. The conditions noted are these: Homo sapiens.
For the variant ISTPTHWSKLDPKTMKVNDLRKELERRALSSKGLKSQLIARLTKQLKVEE, the abundance fitness amounted to 0.118 ± 0.035.

Regarding ISTPTHWSKLDPKTMKVNDLRKELEKRALSSKGLKSQLIARLTKQLKVEE, the abundance fitness is 0.197 ± 0.059.

With ISTPTHWSKLDPKTMKVNDLRKELECRALSSKGLKSQLIARLTKQLKVEE, the abundance fitness came out at 0.08 ± 0.04.

Turning to ISTPTWWSKLDPKTMKVNDLRKELESRALSSKGLKSQLIARLTKQLKVEE, the abundance fitness was -0.135 ± 0.05.

Turning to ISTPTHWSKLDPKTMKVNDLRKELSSRALSSKGLKSQLIARLTKQLKVEE, the abundance fitness is -0.539 ± 0.058.

As for ISTPTHWSKLDPKTMKVNDLRKELASRALSSKGLKSQLIARLTKQLKVEE, the abundance fitness was -0.443 ± 0.056.

On to ISTPTHWSKLDPKTMKVNDLRKELESRALSSKGLKSQLIARLTKQFKVEE, for which the abundance fitness was -0.471 ± 0.076.

With ISTPTHWSKLDPKTMKVNDLRKELESRALSSKGLKSQLTARLTKQLKVEE, the abundance fitness was -0.049 ± 0.029.

As to ISTPTHWSKLDPKTMKVNDLRKELESRALSSKGLKSQLDARLTKQLKVEE, the abundance fitness is -0.266 ± 0.035.

For ISTPTHWSKLDPKTMKVNDLRKELESRALSSKGLKSQLYARLTKQLKVEE, the abundance fitness was -0.279 ± 0.042.

As to ISTPTHWSKLDPKTGKVNDLRKELESRALSSKGLKSQLIARLTKQLKVEE, the abundance fitness is -0.94 ± 0.046.

ISTPTHWSKLDPKTHKVNDLRKELESRALSSKGLKSQLIARLTKQLKVEE: the abundance fitness was -0.996 ± 0.059.

Take ISTPTHWSKLDPKTVKVNDLRKELESRALSSKGLKSQLIARLTKQLKVEE: the abundance fitness was -0.745 ± 0.058.

ISTPTHWSKLDPKTAKVNDLRKELESRALSSKGLKSQLIARLTKQLKVEE: the abundance fitness was -0.543 ± 0.043.

For the variant ISTPTHWSKLDPKTDKVNDLRKELESRALSSKGLKSQLIARLTKQLKVEE, the abundance fitness is -0.775 ± 0.057.

For ISTPTHWSKLDPKTMKVNDLRKELESRALSSSGLKSQLIARLTKQLKVEE, the abundance fitness was -0.142 ± 0.042.

As for ISTPTHWSKLDPKTMKVNDLRKELESRALSSHGLKSQLIARLTKQLKVEE, the abundance fitness was -0.05 ± 0.062.

As to ISTPTHWSKLDPKTMKVNDLRKELESRALSSCGLKSQLIARLTKQLKVEE, the abundance fitness is -0.18 ± 0.036.

Turning to ISTPTHWSKLDPKTMSVNDLRKELESRALSSKGLKSQLIARLTKQLKVEE, the abundance fitness is -0.011 ± 0.038.

As for ISTPTHWSKLDPKTMVVNDLRKELESRALSSKGLKSQLIARLTKQLKVEE, the abundance fitness was -0.228 ± 0.049.

In the case of ISTPTHWSKLDDKTMKVNDLRKELESRALSSKGLKSQLIARLTKQLKVEE, the abundance fitness was -1.02 ± 0.25.

For the variant ISTPTHWSKLDWKTMKVNDLRKELESRALSSKGLKSQLIARLTKQLKVEE, the abundance fitness was -0.488 ± 0.036.

Consider ISTPTHWSKLDPKTMKVNDLRKELESLALSSKGLKSQLIARLTKQLKVEE, for which the abundance fitness was -0.805 ± 0.049.

As for ISTPTHWSKLDPKTMKVNDLRKELESVALSSKGLKSQLIARLTKQLKVEE, the abundance fitness is -0.678 ± 0.055.

As for ISTPTHWSKLDPKTMKVNDLRKELESFALSSKGLKSQLIARLTKQLKVEE, the abundance fitness is -1.02 ± 0.16.

ISTPTHWSKLDPKTMKVNDLRKELESRALSSKGLKSQLIARLTKQLKVKE: the abundance fitness was -1.19 ± 0.22.

As for ISTPTHWSKLDPKTMKVNDLRKELESRALSSKGLKSQLIARLTKQLKVQE, the abundance fitness is -0.592 ± 0.056.

As to ISTPTHWSKLDPKTMKVNDLRKELESRALSSKGLKSQLIARLTKQLKVNE, the abundance fitness is -0.909 ± 0.12.

Regarding ISTPTHWSKLDPKTMKVNDLRKELESRALSSKGLKSQLIARLTKQLKVIE, the abundance fitness was -0.943 ± 0.19.

For the variant ISTPTHWSKLDPKTMKVNDLRKELESRALTSKGLKSQLIARLTKQLKVEE, the abundance fitness was -0.034 ± 0.033.

With ISTPTHWSKLDPKTMKVNDLRKELESRALISKGLKSQLIARLTKQLKVEE, the abundance fitness is -0.185 ± 0.071.

Turning to ISTPTHWSKLDPKTMKVNDLRKELESRALSSKGLKSQSIARLTKQLKVEE, the abundance fitness is -0.592 ± 0.044.

For the variant ISTPTHWSKLDPKTMKVNDLRKELESRALSSKGLKSQQIARLTKQLKVEE, the abundance fitness was -0.366 ± 0.046.

On to ISTPTHWSKLDPKTMKVNDDRKELESRALSSKGLKSQLIARLTKQLKVEE, for which the abundance fitness is -0.741 ± 0.083.

For ISTPTHWSKLDPKTMKVNDYRKELESRALSSKGLKSQLIARLTKQLKVEE, the abundance fitness was -0.751 ± 0.11.

In the case of ISTPTHWSKLDPKTMKVNDLRKELESRRLSSKGLKSQLIARLTKQLKVEE, the abundance fitness stood at 0.151 ± 0.029.

Take ISTPTHWSKLDPKTMKVNDLRKEYESRALSSKGLKSQLIARLTKQLKVEE: the abundance fitness is -1.01 ± 0.19.

For the variant ISTPTHWSKLDPKTMKVNDLRKEPESRALSSKGLKSQLIARLTKQLKVEE, the abundance fitness was -0.778 ± 0.067.

For ISTPTHWSKLDPKTMKVNDLRKEGESRALSSKGLKSQLIARLTKQLKVEE, the abundance fitness was -0.905 ± 0.064.

Turning to ISYPTHWSKLDPKTMKVNDLRKELESRALSSKGLKSQLIARLTKQLKVEE, the abundance fitness stood at 0.124 ± 0.07.

Turning to ISFPTHWSKLDPKTMKVNDLRKELESRALSSKGLKSQLIARLTKQLKVEE, the abundance fitness is -0.121 ± 0.06.

For ISHPTHWSKLDPKTMKVNDLRKELESRALSSKGLKSQLIARLTKQLKVEE, the abundance fitness was -0.288 ± 0.083.

Take ISTRTHWSKLDPKTMKVNDLRKELESRALSSKGLKSQLIARLTKQLKVEE: the abundance fitness stood at 0.075 ± 0.039.

For the variant ISTYTHWSKLDPKTMKVNDLRKELESRALSSKGLKSQLIARLTKQLKVEE, the abundance fitness was determined as 0.012 ± 0.066.

Turning to ISTPTHWSKLDPKTMKVNDLRKELESRALSSKGLKSQLIARLTKLLKVEE, the abundance fitness was -0.46 ± 0.048.

With ISTPTHWSKLDPKTMKVNDLRKELESRALSSKGLKSQLIARLTKILKVEE, the abundance fitness is -0.187 ± 0.068.

Turning to ISTPTHWSKLDPKTMKVNDLRKELESRALSSKGLKSQLIARLTKGLKVEE, the abundance fitness is -0.364 ± 0.039.

Regarding RSTPTHWSKLDPKTMKVNDLRKELESRALSSKGLKSQLIARLTKQLKVEE, the abundance fitness is -0.458 ± 0.084.

Regarding NSTPTHWSKLDPKTMKVNDLRKELESRALSSKGLKSQLIARLTKQLKVEE, the abundance fitness was -0.33 ± 0.093.

Turning to KSTPTHWSKLDPKTMKVNDLRKELESRALSSKGLKSQLIARLTKQLKVEE, the abundance fitness is -0.257 ± 0.082.

In the case of MSTPTHWSKLDPKTMKVNDLRKELESRALSSKGLKSQLIARLTKQLKVEE, the abundance fitness is -0.123 ± 0.058.

ISTPTHWSKLDPKTMKVNDLRKELESRALSSKGLKSQLIARLVKQLKVEE: the abundance fitness was -0.057 ± 0.041.
